Consider one molecule from US20210155687A1 (published 2021).

In assay [1] the target is T1, Human OSM (human).
T1 chain: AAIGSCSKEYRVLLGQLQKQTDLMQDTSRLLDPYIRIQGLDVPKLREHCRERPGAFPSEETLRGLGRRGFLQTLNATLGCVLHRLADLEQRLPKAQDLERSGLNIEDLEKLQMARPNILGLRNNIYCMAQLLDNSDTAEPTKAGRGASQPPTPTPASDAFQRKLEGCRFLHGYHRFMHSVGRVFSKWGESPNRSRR
The experiment in a line: in vivo affinity in serum, estimated with a TMDD model (one-compartment PK plus binding kinetics) from free and total OSM levels in the single ascending dose FTIH study.

For assay [2], the target named is T1, Human OSM. The experiment in a line: in vivo affinity estimated from FTIH PK/PD data (rounded restatement of the TMDD estimate).

B1: mab 1 (antibody)
heavy: SYAMS
light: EVQLVESGGGLVQPGGSLRLSCAASGFTFSSYAMSWVRQAPGKGLEWVATISDGGSFTYYLDNVRGRFTISRDNAKNSLYLQMNSLRAEDTAVYYCARDVGHTTFWYFDVWGRGTLVTVSS
notes: Humanised anti-OSM antibody derived from murine 10G8; also called humanised mab 1 derived from 10G8; Mature H0 (IGHV3_23 CDRH1) heavy chain with Mature L1 light chain
B1: the Kd in the assay with Human OSM [1] is 0.568 nM; with Human OSM [2] it was around 0.6 nM.

The Kd is the concentration at which binding is half-saturated.
